Reference: the supplement of paper PMC7877785
± gives the uncertainty stated by the source.

Assay: self-splicing fitness, log relative to wild type (ln ratio); higher = more splicing; Tetrahymena group I intron in knt gene, E. coli kanamycin selection, DiMSum; sequences stand for … in CUCUCU…GGAGGGAAAAGUUAUCAGGCAUGCACCUGGUAGCUAGUCUUUAAACCAAUAGAUUGCAUCGGUUUAAAAGGCAAGACCGUCAAAUUGCGGGAAAGGGGUCAACAGCCGUUCAGUACCAAGUCUCAGGGGAAACUUUGAGAUGGCCUUGCAAAGGGUAUGGUAAUAAGCUGACGGACAUGGUCCUAACCACGCAGCCAAGUCCUAAGUCAACAGAUCUUCUGUUGAUAUGGAUGCAGUUCACAGACUAAAUGUCGGUCGGGGAAGAUGUAUUCUUCUCAUAAGAUAUAGUCGGACCUCUCCUUAAUGGGAGCUAGCGGAUGAAGUGAUGCAACACUGGAGCCGCUGGGAACUAAUUUGUAUGCGAAAGUAUAUUGAUUAGUUUUGGAGUACUCGUGGUCG
Method in brief: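 Colonies from six replicate transformations of E. coli BL21(DE3) were pooled and amplicon-sequenced on an Illumina HiSeq 2500. The library placed an intron with all eight P1ex-region nucleotides randomised inside the knt kanamycin-resistance gene on pET-22b(+), and cells grew overnight at 37°C or 30°C on LB agar with or without 25 μg/mL kanamycin (plus 100 μg/mL carbenicillin, 50 μM IPTG, 0.2% rhamnose). Fitness is the DiMSum error-weighted combination of wild-type-normalised replicate fold changes, kanamycin versus none.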

| Sequence | self-splicing fitness (ln) (30 °C) | self-splicing fitness (ln) (37 °C) |
| --- | --- | --- |
| CCGCAGCAAUAUUACGUUAU | -3.43 ± 0.17 | -2.77 ± 0.19 |
| CCGCAGCAAUAUUACGUUGG | -3.26 ± 0.22 | -1.52 ± 0.2 |
| CCGGAGCAAUAUUACGAACG | -0.608 ± 0.16 | 0.0318 ± 0.19 |
| CCGGAGCAAUAUUACGAUAC |  | -1.97 ± 0.36 |
| CCGGAGCAAUAUUACGAUAU |  | -2.37 ± 0.42 |
| CCGGAGCAAUAUUACGAUCA | -3.1 ± 0.42 | -2.63 ± 0.44 |
| CCGGAGCAAUAUUACGCAGG | -3.9 ± 0.27 | -2.67 ± 0.23 |
| CCGGAGCAAUAUUACGCAUG | -1.66 ± 0.14 | 0.0371 ± 0.22 |
| CCGGAGCAAUAUUACGGAGU | -3.65 ± 0.2 | -3.41 ± 0.24 |
| CCGGAGCAAUAUUACGGAUA | -2.42 ± 0.2 | -1.18 ± 0.23 |
| CCGGAGCAAUAUUACGGCAC |  | -0.904 ± 0.44 |
| CCGGAGCAAUAUUACGGCAG | -3.21 ± 0.24 | -3.16 ± 0.33 |
| CCGGAGCAAUAUUACGGCAU | -2.81 ± 0.22 | -1.55 ± 0.19 |
| CCGGAGCAAUAUUACGGCUG | -1.14 ± 0.15 | -0.43 ± 0.18 |
| CCGGAGCAAUAUUACGGUAC | -2.73 ± 0.22 | -2.25 ± 0.4 |
| CCGGAGCAAUAUUACGGUCU | -2.42 ± 0.22 | -2.54 ± 0.38 |
| CCGGAGCAAUAUUACGGUGG | -3.8 ± 0.37 | -2.61 ± 0.36 |
| CCGGAGCAAUAUUACGUGAG | -1.33 ± 0.12 | -0.689 ± 0.1 |
| CCGGAGCAAUAUUACGUGGA | -3.59 ± 0.47 | -2.16 ± 0.25 |
| CCGUAGCAAUAUUACGAAGA | -3.8 ± 0.35 | -2.08 ± 0.24 |

| Sequence | self-splicing fitness (ln) (30 °C) | self-splicing fitness (ln) (37 °C) |
| --- | --- | --- |
| CCGUAGCAAUAUUACGACAC | -1.82 ± 0.22 |  |
| CCGUAGCAAUAUUACGACAG | -0.678 ± 0.11 | -0.234 ± 0.13 |
| CCGUAGCAAUAUUACGACCU | -0.833 ± 0.34 |  |
| CCGUAGCAAUAUUACGACGG |  | -0.894 ± 0.28 |
| CCGUAGCAAUAUUACGAGCG | -0.86 ± 0.12 | -0.719 ± 0.15 |
| CCGUAGCAAUAUUACGAGGA | -2.96 ± 0.24 | -1.24 ± 0.18 |
| CCGUAGCAAUAUUACGAUGG | -3.58 ± 0.2 | -3.38 ± 0.26 |
| CCGUAGCAAUAUUACGAUUA | -2.57 ± 0.2 | -1.86 ± 0.26 |
| CCGUAGCAAUAUUACGAUUU | -3.55 ± 0.17 | -2.08 ± 0.17 |
| CCGUAGCAAUAUUACGCAAC | -4.04 ± 0.26 | -2.13 ± 0.21 |
| CCGUAGCAAUAUUACGCACA | -3.79 ± 0.31 | -1.44 ± 0.36 |
| CCGUAGCAAUAUUACGCGCU | -3.4 ± 0.4 | -1.57 ± 0.3 |
| CCGUAGCAAUAUUACGCUGA | -2.87 ± 0.31 | -2.06 ± 0.28 |
| CCGUAGCAAUAUUACGCUUA | -3.52 ± 0.45 | -1.7 ± 0.35 |
| CCGUAGCAAUAUUACGGAGU | -2.68 ± 0.16 | -2.33 ± 0.22 |
| CCGUAGCAAUAUUACGGAUG | -3.56 ± 0.3 | -2.11 ± 0.23 |
| CCGUAGCAAUAUUACGGCUU | -3.06 ± 0.35 | -3.06 ± 0.43 |
| CCGUAGCAAUAUUACGGUAU | -4.05 ± 0.21 | -2.85 ± 0.2 |
| CCGUAGCAAUAUUACGGUGU | -3.66 ± 0.17 | -1.85 ± 0.11 |
